From patent EP4248993A1 (Charité - Universitätsmedizin Berlin, dated 2023)

Molecular target: MERS-CoV RBD Twin-Strep His (wild type, G372-L588) (MERS-CoV)
Experiment: serum pull-down with RBD-TwinStrep on streptavidin magnetic beads

B1: circulating mouse DPP4 (from serum) (receptor)
chain: SRRTYSLADYLKSTFRVKSYSLWWVSDFEYLYKQENNILLLNAEHGNSSIFLENSTFESFGYHSVSPDRLFVLLEYNYVKQWRHSYTASYNIYDVNKRQLITEEKIPNNTQWITWSPEGHKLAYVWKNDIYVKVEPHLPSHRITSTGEENVIYNGITDWVYEEEVFGAYSALWWSPNNTFLAYAQFNDTGVPLIEYSFYSDESLQYPKTVWIPYPKAGAVNPTVKFFIVNIDSLSSSSSAAPIQIPAPASVARGDHYLCDVVWATEERISLQWLRRIQNYSVMAICDYDKINLTWNCPSEQQHVEMSTTGWVGRFRPAEPHFTSDGSSFYKIISDKDGYKHICHFPKDKKDCTFITKGAWEVISIEALTSDYLYYISNQYKEMPGGRNLYKIQLTDHTNVKCLSCDLNPERCQYYAVSFSKEAKYYQLGCWGPGLPLYTLHRSTDHKELRVLEDNSALDRMLQDVQMPSKKLDFIVLNETRFWYQMILPPHFDKSKKYPLLLDVYAGPCSQKADASFRLNWATYLASTENIIVASFDGRGSGYQGDKIMHAINRRLGTLEVEDQIEAARQFVKMGFVDSKRVAIWGWSYGGYVTSMVLGSGSGVFKCGIAVAPVSRWEYYDSVYTERYMGLPIPEDNLDHYRNSTVMSRAEHFKQVEYLLIHGTADDNVHFQQSAQISKALVDAGVDFQAMWYTDEDHGIASSTAHQHIYSHMSHFLQQCFSLH
binding result: no binding
